Results reported in patent US20100092505A1, “Method for Shielding Functional Sites or Epitopes on Proteins” (priority 2005, published 2010).
Where no end group is shown, it is not given here.

Key:
[1] = Isoelectric point (pI) of chimeric peptides and gp41 mimetics; assay type: physicochemical
[2] = disulfide-linked trimer; refers to U.S. Provisional Applications 60/576,062 and 60/636,724; cited from earlier work
guinea pigs = experiment: ELISA of sera from guinea pigs immunized under homologous and heterologous Prime/Boost regimens; assay type: in vivo; conditions: guinea pig serum; prime plus two boosts; PEGylated vaccine in both homologous and heterologous modality; QS21 adjuvant
Protocol: The Prime/Boost pair is shown below each group of bars. The ELISA geometric mean titers (GMT) against each antigen are a true reflection of the relative amount of antibodies with the corresponding specificity present in the serum.
Immunogenicity of the SMW-PEGylated vaccine—Animal studies were conducted in guinea pigs to compare the antibody response elicited by the non-PEGylated vaccine (CCIZN17)3 and the PEGylated vaccine (CCIPN17)3. The latter was used both in a homologous modality (i.e., using a priming injection with the antigen, followed by two boost injections with the same antigen) and a heterologous modality (i.e., using a priming injection with the non-PEGylated antigen (CCIZN17)3, followed by two boost injections with the PEGylated antigen (CCIPN17)3) (see FIG. 4). The PEGylated antigens were administered to the animals along with QS21 as an adjuvant (Antigenics; New York, N.Y.). Analysis of the immune response was performed by ELISA. To eliminate any bias due to differences in the absorption capacity of the antigens on the ELISA plate, all the capture antigens were biotinylated, and the ELISA plate was coated with streptavidin prior to the addition of the capture biotinylated molecules. […] This is identical in (CCIZN17)3 and (CCIPN17)3 and, accordingly, the measured GMT are identical when measured against either antigen.

patients = conditions: cited from earlier work

(CCGGIEKKIEEIEKKIEEIEKKIEEIEKLLQLTVWGIKQLQARIL)3 [(CCEZN17)3]
pI ([1]; Table 6, gp41 mimetics): 5.30

(CCGGIKKEIEAIKKEQEAIKKKIEAIEKLLQLTVWGIKQLQARIL)3 (not fully specified (N-terminus, C-terminus, bridges); printed as (CCGGIKKEIEAIKKEQEAIKKKIEAIEKLLQLTVWGIKQLQARIL)3; also: disulfide-linked trimer) [(CCIZN17)3]
stability relative to the non-covalent IZN17 trimeric coiled-coil [2]: more stable than the original IZN17 trimeric coiled-coil | antibody response against the scaffold moiety (ELISA GMT, capture antigens (Biotin-CCIZ)3 and (Biotin-CCIP)3) (guinea pigs): comparable amounts against the whole antigen and the scaffold moiety alone

AN-1792: Elan/Wyeth Aβ 1-42 peptide vaccine for Alzheimer disease, clinical trial discontinued
therapeutic effect in the clinical trial (patients; patients with high titers of Aβ antibodies): reduction of plaque and some limited stabilization of memory | adverse effect that led to discontinuation of the clinical trial (patients; patients, attributed to a T-cell response to the COOH-terminal region of Aβ): severe brain inflammation problems | induction of antibodies specific for the pathological form of Aβ (patients; vaccinated patients): induced in the majority of patients

IEKKIEEIEKKIEEIEKKIEEIEKLLQLTVWGIKQLQARIL [EZN17]
pI ([1]; chimeric N-peptide): 5.2

IKKEIEAIKKEQEAIKKKIEAIEKLLQLTVWGIKQLQARIL [IZN17]
pI ([1]; chimeric N-peptide): 10.7
